From patent US9618524B2, “Method, composition, isolation and identification of a plaque particle and related biomarker” (Plaxgen Inc., priority 2012, dated 2017)

B1: Desmoglein-1 (protein)
chain: EWIKFAAACREGEDNSKRNPIAKIHSDCAANQQVTYRISGVGIDQPPYGIFVINQKTGEINITSIVDREVTPFFIIYCRALNSMGQDLERPLELRVRVLDINDNPPVFSMATFAGQIEENSNANTLVMILNATDADEPNNLNSKIAFKIIRQEPSDSPMFIINRNTGEIRTMNNFLDREQYGQYALAVRGSDRDGGADGMSAECECNIKILDVNDNIPYMEQSSYTIEIQENTLNSNLLEIRVIDLDEEFSANWMAVIFFISGNEGNWFEIEMNERTNVGILKVVKPLDYEAMQSLQLSIGVRNKAEFHHSIMSQYKLKASAISVTVLNVIEGPVFRPGSKTYVVTGNMGSNDKVGDFVATDLDTGRPSTTVRYVMGNNPADLLAVDSRTGKLTLKNKVTKEQYNMLGGKYQGTILSIDDNLQRTCTGTININIQSFGNDDRTNTEPNTKITTNTGRQESTSSTNYDTSTTSTDSSQVYSSEPGNGAKDLLSDNVHFGPAGIGLLIMGFLVLGLVPFLMICCDCGGAPRSAAGFEPVPECSDGAIHSWAVEGPQPEPRDITTVIPQIPPDNANIIECIDNSGVYTNEYGGREMQDLGGGERMTGFELTEGVKTSGMPEICQEYSGTLRRNSMRECREGGLNMNFMESYFCQKAYAYADEDEGRPSNDCLLIYDIEGVGSPAGSVGCCSFIGEDLDDSFLDTLGPKFKKLADISLGKESYPDLDPSWPPQSTEPVCLPQETEPVVSGHPPISPHFGTTTVISESTYPSGPGVLHPKPILDPLGYGNVTVTESYTTSDTLKPSVHVHDNRPASNVVVTERVVGPISGADLHGMLEMPDLRDGSNVIVTERVIAPSSSLPTSLTIHHPRESSNVVVTERVIQPTSGMIGSLSMHPELANAHNVIVTERVVSGAGVTGISGTTGISGGIGSSGLVGTSMGAGSGALSGAGISGGGIGLSSLGGTASIGHMRSSSDHHFNQTIGSASPSTARSRITKYSTVQYSK
B2: Ig gamma-2 chain C region (protein)
chain: ASTKGPSVFPLAPCSRSTSESTAALGCLVKDYFPEPVTVSWNSGALTSGVHTFPAVLQSSGLYSLSSVVTVPSSNFGTQTYTCNVDHKPSNTKVDKTVERKCCVECPPCPAPPVAGPSVFLFPPKPKDTLMISRTPEVTCVVVDVSHEDPEVQFNWYVDGVEVHNAKTKPREEQFNSTFRVVSVLTVVHQDWLNGKEYKCKVSNKGLPAPIEKTISKTKGQPREPQVYTLPPSREEMTKNQVSLTCLVKGFYPSDISVEWESNGQPENNYKTTPPMLDSDGSFFLYSKLTVDKSRWQQGNVFSCSVMHEALHNHYTQKSLSLSPGK
B3: Apolipoprotein C-II (protein)
chain: TQQPQQDEMPSPTFLTQVKESLSSYWESAKTAAQNLYEKTYLPAVDEKLRDLYSKSTAAMSTYTGIFTDQVLSVLKGEE
B4: Platelet basic protein (protein)
chain: SSTKGQTKRNLAKGKEESLDSDLYAELRCMCIKTTSGIHPKNIQSLEVIGKGTHCNQVEVIATLKDGRKICLDPDAPRIKKIVQKKLAGDESAD
B5: Ig lambda chain V-III region (protein)
chain: SELTQDPAVSVALGQTVRITCQGDSLRSYYASWYQQKPGQAPVLVIYGKNNRPSGIPDRFSGSSSGNTASLTITGAQAEDEADYYCNSRDSS
B6: Thyroxine-binding globulin (protein)
chain: ASPEGKVTACHSSQPNATLYKMSSINADFAFNLYRRFTVETPDKNIFFSPVSISAALVMLSFGACCSTQTEIVETLGFNLTDTPMVEIQHGFQHLICSLNFPKKELELQIGNALFIGKHLKPLAKFLNDVKTLYETEVFSTDFSNISAAKQEINSHVEMQTKGKVVGLIQDLKPNTIMVLVNYIHFKAQWANPFDPSKTEDSSSFLIDKTTTVQVPMMHQMEQYYHLVDMELNCTVLQMDYSKNALALFVLPKEGQMESVEAAMSSKTLKKWNRLLQKGWVDLFVPKFSISATYDLGATLLKMGIQHAYSENADFSGLTEDNGLKLSNAAHKAVLHIGEKGTEAAAVPEVELSDQPENTFLHPIIQIDRSFMLLILERSTRSILFLGKVVNPTEA
B7: Ig gamma-3 chain C region (protein)
chain: ASTKGPSVFPLAPCSRSTSGGTAALGCLVKDYFPEPVTVSWNSGALTSGVHTFPAVLQSSGLYSLSSVVTVPSSSLGTQTYTCNVNHKPSNTKVDKRVELKTPLGDTTHTCPRCPEPKSCDTPPPCPRCPEPKSCDTPPPCPRCPEPKSCDTPPPCPRCPAPELLGGPSVFLFPPKPKDTLMISRTPEVTCVVVDVSHEDPEVQFKWYVDGVEVHNAKTKPREEQYNSTFRVVSVLTVLHQDWLNGKEYKCKVSNKALPAPIEKTISKTKGQPREPQVYTLPPSREEMTKNQVSLTCLVKGFYPSDIAVEWESSGQPENNYNTTPPMLDSDGSFFLYSKLTVDKSRWQQGNIFSCSVMHEALHNRFTQKSLSLSPGK
B8: Lactotransferrin (protein)
chain: GRRRSVQWCAVSQPEATKCFQWQRNMRKVRGPPVSCIKRDSPIQCIQAIAENRADAVTLDGGFIYEAGLAPYKLRPVAAEVYGTERQPRTHYYAVAVVKKGGSFQLNELQGLKSCHTGLRRTAGWNVPIGTLRPFLNWTGPPEPIEAAVARFFSASCVPGADKGQFPNLCRLCAGTGENKCAFSSQEPYFSYSGAFKCLRDGAGDVAFIRESTVFEDLSDEAERDEYELLCPDNTRKPVDKFKDCHLARVPSHAVVARSVNGKEDAIWNLLRQAQEKFGKDKSPKFQLFGSPSGQKDLLFKDSAIGFSRVPPRIDSGLYLGSGYFTAIQNLRKSEEEVAARRARVVWCAVGEQELRKCNQWSGLSEGSVTCSSASTTEDCIALVLKGEADAMSLDGGYVYTAGKCGLVPVLAENYKSQQSSDPDPNCVDRPVEGYLAVAVVRRSDTSLTWNSVKGKKSCHTAVDRTAGWNIPMGLLFNQTGSCKFDEYFSQSCAPGSDPRSNLCALCIGDEQGENKCVPNSNERYYGYTGAFRCLAENAGDVAFVKDVTVLQNTDGNNNEAWAKDLKLADFALLCLDGKRKPVTEARSCHLAMAPNHAVVSRMDKVERLKQVLLHQQAKFGRNGSDCPDKFCLFQSETKNLLFNDNTECLARLHGKTTYEKYLGPQYVAGITNLKKCSTSPLLEACEFLRK

What follows are molecules tested on Tau plaque particles (assay: Mass spectroscopy proteomics, semi-quantitative binding affinity of serum proteins (plaqueproteome, Table 2)). Settings: higher number = stronger affinity.
Parameters: species or system human
Method in brief: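 Synthetic Tau-74 and Tau-275 peptides (1 mg/mL PBS, 37° C, 2 h) aggregated; 30 μg aggregates incubated with 50% serum/plasma 1 h at 37° C, stained with Thioflavin S, and plaque particles sorted by flow cytometry. Bound proteins trypsin-digested and identified by MS/MS against human UniProt.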
With B1 the “Semi-quantitative analysis of proteins binding to different plaque particles: Tau” value was 0. With B2 the “Semi-quantitative analysis of proteins binding to different plaque particles: Tau” value was 11. B3 was tested, and the “Semi-quantitative analysis of proteins binding to different plaque particles: Tau” value was 0. With B4 the “Semi-quantitative analysis of proteins binding to different plaque particles: Tau” value was 2. For B5, the “Semi-quantitative analysis of proteins binding to different plaque particles: Tau” value was 2. B6 was tested, and the “Semi-quantitative analysis of proteins binding to different plaque particles: Tau” value was 1. For B7, the “Semi-quantitative analysis of proteins binding to different plaque particles: Tau” value was 13. In the case of B8, the “Semi-quantitative analysis of proteins binding to different plaque particles: Tau” value is reported as 0.

What follows are molecules tested against T1, alpha-synuclein plaque particles (Homo sapiens, UniProt P37840) in the same assay as above. Settings: higher number = stronger affinity.
T1 construct: 140 amino acids polypeptide
Method in brief: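 AD-subject plasma or serum (800 μL of 50%) mixed with 30 μg preformed alpha-synuclein aggregates for 1 h at 37 °C; Thioflavin S-positive particles isolated by flow sorting. After reduction, acrylamide alkylation and overnight tryptic digestion, serum proteins identified by MS/MS with Sequest and Scaffold.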
B1 was tested, and the “Semi-quantitative analysis of proteins binding to different plaque particles: Synuclein” value was 0. With B2 the “Semi-quantitative analysis of proteins binding to different plaque particles: Synuclein” value was 10. For B3, the “Semi-quantitative analysis of proteins binding to different plaque particles: Synuclein” value was 1. With B4 the “Semi-quantitative analysis of proteins binding to different plaque particles: Synuclein” value was 1. B5 was tested, and the “Semi-quantitative analysis of proteins binding to different plaque particles: Synuclein” value was 2. In the case of B6, the “Semi-quantitative analysis of proteins binding to different plaque particles: Synuclein” value is reported as 0. In the case of B7, the “Semi-quantitative analysis of proteins binding to different plaque particles: Synuclein” value is reported as 14. In the case of B8, the “Semi-quantitative analysis of proteins binding to different plaque particles: Synuclein” value is reported as 0.

The molecules below were run on High Density cholesterol (Chl Large) plaque particles in the same assay as above. Settings: higher number = stronger affinity.
Parameters: species or system human
Method in brief: (§1)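 Serum or plasma from atherosclerotic subjects, diluted to 50% in PBS, was incubated with cholesterol aggregates (30 μg per 1 mL reaction) at 37° C for 1 hr. Small and large cholesterol plaque particles were sorted by flow cytometry gating, trypsin-digested and analysed by MS/MS against a human UniProt database.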
B1 was tested, and the “Semi-quantitative analysis of proteins binding to different plaque particles: Chl Large” value was 0. With B2 the “Semi-quantitative analysis of proteins binding to different plaque particles: Chl Large” value was 12. In the case of B3, the “Semi-quantitative analysis of proteins binding to different plaque particles: Chl Large” value is reported as 0. With B4 the “Semi-quantitative analysis of proteins binding to different plaque particles: Chl Large” value was 0. In the case of B5, the “Semi-quantitative analysis of proteins binding to different plaque particles: Chl Large” value is reported as 1. In the case of B6, the “Semi-quantitative analysis of proteins binding to different plaque particles: Chl Large” value is reported as 0. B7 was tested, and the “Semi-quantitative analysis of proteins binding to different plaque particles: Chl Large” value was 15. For B8, the “Semi-quantitative analysis of proteins binding to different plaque particles: Chl Large” value was 0.

Each molecule was assayed on Low density cholesterol (Chl small) plaque particles in the same assay as above. Settings: higher number = stronger affinity.
Parameters: species or system human
Method in brief: as §1
B1 was tested, and the “Semi-quantitative analysis of proteins binding to different plaque particles: Chl small” value was 0. With B2 the “Semi-quantitative analysis of proteins binding to different plaque particles: Chl small” value was 14. B3 was tested, and the “Semi-quantitative analysis of proteins binding to different plaque particles: Chl small” value was 1. In the case of B4, the “Semi-quantitative analysis of proteins binding to different plaque particles: Chl small” value is reported as 0. With B5 the “Semi-quantitative analysis of proteins binding to different plaque particles: Chl small” value was 1. With B6 the “Semi-quantitative analysis of proteins binding to different plaque particles: Chl small” value was 1. In the case of B7, the “Semi-quantitative analysis of proteins binding to different plaque particles: Chl small” value is reported as 11. In the case of B8, the “Semi-quantitative analysis of proteins binding to different plaque particles: Chl small” value is reported as 0.

What follows are molecules tested against T2, Abeta-42 plaque particles (Homo sapiens, UniProt P05067) in the same assay as above. Settings: higher number = stronger affinity.
T2 construct: Abeta 1-42
Method in brief: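 AD patient serum or plasma (50% in PBS) was incubated with Abeta-42 aggregates (30 μg) for 1 h at 37 °C, then stained with Thioflavin S for 30 min. Labeled particles were FACS-sorted, trypsin/Lys-C digested overnight and analyzed by MS/MS. Sequest searched human UniProt; Scaffold/Protein Prophet validated the identifications.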
With B1 the “Semi-quantitative analysis of proteins binding to different plaque particles: Abeta-42” value was 5. In the case of B2, the “Semi-quantitative analysis of proteins binding to different plaque particles: Abeta-42” value is reported as 11. With B3 the “Semi-quantitative analysis of proteins binding to different plaque particles: Abeta-42” value was 0. With B4 the “Semi-quantitative analysis of proteins binding to different plaque particles: Abeta-42” value was 0. In the case of B5, the “Semi-quantitative analysis of proteins binding to different plaque particles: Abeta-42” value is reported as 0. For B6, the “Semi-quantitative analysis of proteins binding to different plaque particles: Abeta-42” value was 2. In the case of B7, the “Semi-quantitative analysis of proteins binding to different plaque particles: Abeta-42” value is reported as 11. For B8, the “Semi-quantitative analysis of proteins binding to different plaque particles: Abeta-42” value was 5.
